Measured values as given in paper PMC8169799 (iScience, 2021).

Target: the molecule itself
Experiment: cryo-EM structure

B1: copper efflux regulator (CueR), Escherichia coli (natural protein, E. coli)
chain: MNISDVAKITGLTSKAIRFYEEKGLVTPPMRSENGYRTYTQQHLNELTLLRQARQVGFNLEESGELVNLFNDPQRHSADVKRRTLEKVAEIERHIEELQSMRDQLLALANACPGDDSADCPIIENLSGCCHHRAG
For B1, the “stoichiometry N” value was 2.
